What all share (conditions): protein: recombinant; tags: N-terminal 6His; chain copies: 2; label: 5' biotin on strand 1; blunt
Data set [1] addresses T1, YpdB-D53E (Escherichia coli, UniProt P0AE39 1-244, D53E).
T1 sequence: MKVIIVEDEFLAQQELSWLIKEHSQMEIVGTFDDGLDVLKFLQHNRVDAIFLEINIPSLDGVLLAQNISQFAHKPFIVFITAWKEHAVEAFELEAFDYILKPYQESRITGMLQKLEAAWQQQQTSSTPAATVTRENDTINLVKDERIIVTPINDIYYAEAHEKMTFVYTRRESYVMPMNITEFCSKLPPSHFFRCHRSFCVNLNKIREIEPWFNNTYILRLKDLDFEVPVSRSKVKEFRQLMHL
The data set is described as follows: SPR; 1-50 nM protein; binding completely abolished; SPR (Biacore T200, SA chip): HBS-EP, 10 mM HEPES pH 7.4, 150 mM NaCl, 3 mM EDTA, 0.005% P20, 25 C. (In general: SPR reads the build-up and loss of mass on a sensor chip optically.)

For another data set, the target named is T2, YpdB (Escherichia coli, UniProt P0AE39 1-244).
T2 sequence: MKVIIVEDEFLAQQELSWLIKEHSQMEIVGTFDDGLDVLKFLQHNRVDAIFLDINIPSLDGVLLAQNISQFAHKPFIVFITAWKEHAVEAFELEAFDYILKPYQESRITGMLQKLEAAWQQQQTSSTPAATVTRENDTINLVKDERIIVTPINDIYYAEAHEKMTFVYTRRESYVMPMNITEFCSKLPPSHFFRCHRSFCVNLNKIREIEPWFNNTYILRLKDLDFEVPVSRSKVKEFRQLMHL
Kind of data set: SPR; 1-50 nM protein; lower maximal binding rate and affinity than D53E; SPR (Biacore T200, SA chip): HBS-EP, 10 mM HEPES pH 7.4, 150 mM NaCl, 3 mM EDTA, 0.005% P20, 25 C.

Data set [2] deals with T1, YpdB-D53E. The data set is described as follows: SPR; overall affinity from maximal binding rates, active protein concentration; SPR (Biacore T200, SA chip): HBS-EP, 10 mM HEPES pH 7.4, 150 mM NaCl, 3 mM EDTA, 0.005% P20, 25 C.

B1: PyhjX_A (site A inactivated) (dsDNA)
DNA 1: GGGGCGCGTCATTCATTCCTGAACTAATTACGGGACGTCCGTTCTGATGGCATTTCATGCCGGGGG
DNA 2: CCCCCGGCATGAAATGCCATCAGAACGGACGTCCCGTAATTAGTTCAGGAATGAATGACGCGCCCC
Consider B1, for which the binding result with YpdB-D53E [1] is on record as “no binding”.

B2: PyhjX (dsDNA)
DNA 1: GGGGCGCGTCATTCATTCCTGAACTAAGGCATTTCATTCCGTTCTGATGGCATTTCATGCCGGGGG
DNA 2: CCCCCGGCATGAAATGCCATCAGAACGGAATGAAATGCCTTAGTTCAGGAATGAATGACGCGCCCC
One may read the Kd as a measure of binding affinity in units of concentration. With B2, the binding result with YpdB was “binds”. Further, the Kd in the data set with YpdB-D53E [2] worked out at 10 nM.

The values are drawn from PMC4847170, “Insights into the DNA-binding mechanism of a LytTR-type transcription regulator”.
